Here are results for two molecules from paper PMC3568928 (Journal of molecular biology, 2011).

Usually stoichiometry N stands for a count of units in the complex or per binding partner.

T1: htt^NTQ15K2 (Phe→Trp replacement at position 17 (stands in the printed letters))
T1 peptide: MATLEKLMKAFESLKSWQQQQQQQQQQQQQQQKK

T2: htt^NTQ25K2 (Phe→Trp replacement at position 17 (stands in the printed letters))
T2 peptide: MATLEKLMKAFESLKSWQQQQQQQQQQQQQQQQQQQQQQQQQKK

B1: htt^NTQ37P10K2 (peptide)
peptide: MATLEKLMKAFESLKSWQQQQQQQQQQQQQQQQQQQQQQQQQQQQQQQQQQQQQPPPPPPPPPPKK
B2: htt^NTQ10K2 (peptide)
peptide: MATLEKLMKAFESLKSFQQQQQQQQQQKK

The target of data set [1] is B2. Description: seeded elongation, HPLC sedimentation assay.
Data set [2] has as its target T1, htt^NTQ15K2. Description: seeded elongation, HPLC sedimentation assay.
Data set [3] has as its target T2, htt^NTQ25K2. The experiment in a line: seeded elongation, HPLC sedimentation assay.
Data set [4] deals with the molecule itself. Description: AUC.

Values joined by “and” are separate entries in the source; they are usually repeats but may differ in a detail not shown here. Identical values can stand only once.

For the molecule B1, the figures for the “pseudo-first-order rate constant of seeded elongation” value in data set [1], in data set [2] and in data set [3] were 0.249 h⁻¹, 0.236 h⁻¹ and 0.316 h⁻¹, respectively.

For B2, the “stoichiometry N” value in data set [4] is ~4 and ~8 and ~12.
